Measurements from PMC12906810, “ZmMYB127 Modulates Maize Kernel Texture and Size by Integrating the Synthesis of Starch, Zein Proteins and Auxin”.

B1: Bt1 promoter WT probe (dsDNA)
DNA 1: CACGCGCCGCCATTTCTGTTGCGAATGAGTCCATGG
DNA 2: CCATGGACTCATTCGCAACAGAAATGGCGGCGCGTG
B2: Ae1 promoter WT probe (dsDNA)
DNA 1: GAGAATGAAAGCGAACTGTTGCTCACGGACTCTAAG
DNA 2: CTTAGAGTCCGTGAGCAACAGTTCGCTTTCATTCTC
B3: z1D2 promoter WT probe (dsDNA)
DNA 1: GTTGAAATTGATTGATATCCACAAATTTTGTTAA
DNA 2: TTAACAAAATTTGTGGATATCAATCAATTTCAAC
B4: z1C1 promoter WT probe (dsDNA)
DNA 1: TCTACTAAGCTTGTTCAACCACGAGAAGAATATTAG
DNA 2: CTAATATTCTTCTCGTGGTTGAACAAGCTTAGTAGA

Biological target: ZmMYB127 (Zea mays (inbred B73), UniProt A0A804N6V3 1-263)
Experiment: EMSA; EMSA with LightShift Chemiluminescent EMSA kit protocol, 25 °C, 30 min, native PAGE; buffer, salt and pH not stated
Settings: protein: recombinant; tags: GST (N-terminal, pGEX-6T); label: biotin (end); blunt

Sequence of ZmMYB127 (A0A804N6V3 entry or part of it): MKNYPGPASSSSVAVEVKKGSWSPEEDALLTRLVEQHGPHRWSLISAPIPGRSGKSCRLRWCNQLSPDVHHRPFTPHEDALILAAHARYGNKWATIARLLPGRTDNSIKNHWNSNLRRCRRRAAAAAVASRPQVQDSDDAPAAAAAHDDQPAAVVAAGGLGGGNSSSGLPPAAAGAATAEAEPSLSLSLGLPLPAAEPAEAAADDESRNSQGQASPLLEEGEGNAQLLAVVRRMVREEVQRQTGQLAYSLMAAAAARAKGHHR

Binding result, binds:
B1
B2
B3
B4
